Measured values from patent publication US9050248B2, “Methods of delivering stable topical drug compositions” (Transdermal Biotechnology, Inc., priority 2002, dated 2015).

How the values were obtained:
[1] = Skin penetration on topical application of somatotropin composition; conditions: composition topically applied
Protocol: A drug delivery composition formulated with somatotropin was formulated in one trial with 85% phosphatidylcholine to which lipoic acid and ascorbyl palmitate were added.

[2] = Storage stability of insulin by RP-HPLC and HPCE (Example 1); type: physicochemical; conditions: stored at room temperature
Protocol: This mixture was then divided in half, half of which was stored at 4° C., and the other half stored at room temperature.

[3] = Storage stability of insulin by RP-HPLC and HPCE (Example 2); type: physicochemical

| Substance | skin penetration [1] | time at which denaturing started [2] [days] | time stable (RP-HPLC and HPCE) ([3]; stored at 4° C.) [weeks] | time at which denaturing started ([3]; stored at room temperature) [week] |
| --- | --- | --- | --- | --- |
| Somatotropin: pituitary growth hormone, formulated with 85% phosphatidylcholine, lipoic acid and ascorbyl palmitate | appeared to penetrate the skin well | – | – | – |
| insulin standards: recombinant human insulin in 0.01 N HCl, 1 mg/ml (Example 1) or 5 mg/ml (Example 2) | – | ≤ 7 | 22 | ≤ 1 |
